# Reference: paper doi:10.1101/2025.11.11.687647 (bioRxiv, 2025)
# Biological target: the molecule itself
# Assay: cryo-EM structure
protein,measurement,value
CT–PT–BCCP fragment of MtPC (degradation product) (domain or fragment) ADRGTKILNFLADVTVNNPYGSRPSTIYPDDKLPDLDLRAAPPAGSKQRLVKLGPEGFARWLRESAAVGVTDTTFRDAHQSLLATRVRTSGLSRVAPYLARTMPQLLSVECWGGATYDVALRFLKEDPWERLATLRAAMPNICLQMLLRGRNTVGYTPYPEIVTSAFVQEATATGIDIFRIFDALNNIESMRPAIDAVRETGSAIAEVAMCYTGDLTDPGEQLYTLDYYLKLAEQIVDAGAHVLAIKDMAGLLRPPAAQRLVSALRSRFDLPVHLHTHDTPGGQLASYVAAWHAGADAVDGAAAPLAGTTSQPALSSIVAAAAHTEYDTGLSLSAVCALEPYWEALRKVYAPFESGLPGPTGRVYHHEIPGGQLSNLRQQAIALGLGDRFEEIEEAYAGADRVLGRLVKVTPTSKVVGDLALALVGAGVSADEFASDPARFGIPESVLGFLRGELGDPPGGWPEPLRTAALAGRGAARPTAQLAADDEIALSSVGAKRQATLNRLLFPSPTKEFNEHREAYGDTSQLSANQFFYGLRQGEEHRVKLERGVELLIGLEAISEPDERGMRTVMCILNGQLRPVLVRDRSIASAVPAAEKADRGNPGHIAAPFAGVVTVGVCVGERVGAGQTIATIEAMKMEAPITAPVAGTVERVAVSDTAQVEGGDLLVVVS,stoichiometry N,2
